Substrate in this data set: O=C(O)CCC(=O)C(=O)O
Nature of the data set: purified protein. It counts as biochemical, Halorubrum sp. CSM-61. To be noted: α-KG varied 1-20 mM, amino donor (R)-methylbenzylamine co-varied at 5 equivalents, 0.5 mM PLP, phosphate pH 8.0, 1 M KCl, 30% DMF, 45 °C per general assay, the varied substrate is named only in Method.

B1: BC61-TAm (Halorubrum sp. CSM-61) (protein)
chain: MGFDEMDVDTIWKNGEFLDWEDATTHVLTHALHYGSGVFEGVRCYDTEQGPAVFRWDEHLDRLFDSAKMYDLDIEHSREEITEATMELLRRQDLESCYIRPIAYYGYDSLGVSPKECPTDLVVAAWPWGAYLGEEALEDGVDVMVSSWRKHASSQVPTNVKTTGLYVNSMLAGEEARRNGYVEAIVLNKEGNVAEGPGENVFMVNDGEIYTTGPAQSILEGITRDTVIELAEERGYTVHDEAVVSRGQLYTADELFFTGSAAEVTPIRSVDDTEIGAGTRGPVTEELQSAFFDLVERRTDAHDDWFTYV
notes: full-length gene (930 bp), N-terminal 6xHis tag (pTA1228), expressed in Haloferax volcanii H1424, IMAC purified, 34-35 kDa
What is called Km is the concentration of substrate that gives half-maximal velocity. Broadly, the kcat is the maximal rate divided by the concentration of active sites. For the protein B1, the Km turned out to be 3.37 mM and the catalytic constant (kcat) was 0.042 s⁻¹.
